This note sets out measurements from PMC6829862, “Gγ and Gα Identity Dictate a G-Protein Heterotrimer Plasma Membrane Targeting” (Cells, 2019).

This assay has as its target T1, mCherry–Gβ1γ2 dimer (UniProt P62873 1-340; P59768 1-71, 20-carbon geranylgeranyl lipid on the cysteine of the C-terminal CaaX motif (said of Gγ2 in general)).
T1 construct: Gβ1 subunit; cDNA in pcDNA3.1+ from UMR cDNA Resource Center; FP cloned at the N-terminus; Gγ2 subunit; source: HEK 293, transiently co-transfected (mCherry–Gβ1 and Gγ2), in living cells; not shown: mCherry, N-terminal, kept
Description: FRET or BRET; FLIM-FRET in living transiently transfected HEK 293 cells at 37 °C; donor Citrine in Gα, acceptor mCherry on Gβ1 with the appropriate Gγ; efficiency E = 1 − τda/τd from the short lifetime component τ1 (donor alone 2.7 ± 0.1 ns), analysed only at the plasma membrane; GppNHp added to the culture did not change the signal. The settings on record: partners not purified. For orientation: BRET reads energy transfer from a luciferase to a nearby fluorophore.

B1: Citrine–Gαi3 (natural protein)
chain: MGCTLSAEDKAAVERSKMIDRNLREDGEKAAKEVKLLLLGAGESGKSTIVKQMKIIHEDGYSEDECKQYKVVVYSNTIQSIIAIIRAMGRLKIDFGEAARADDARQLFVLAGSAEEGVMTPELAGVIKRLWRDGGVQACFSRSREYQLNDSASYYLNDLDRISQSNYIPTQQDVLRTRVKTTGIVETHFTFKDLYFKMFDVGGQRSERKKWIHCFEGVTAIIFCVALSDYDLVLAEDEEMNRMHESMKLFDSICNNKWFTETSIILFLNKKDLFEEKIKRSPLTICYPEYTGSNTYEEAAAYIQCQFEDLNRRKDTKEIYTHFTCATDTKNVQFVFDAVTDVIIKNNLKECGLY
notes: cDNA in pcDNA3.1+ from UMR cDNA Resource Center; also called loop-tagged Gαi3; source: HEK 293, transiently transfected, in living cells; not shown: Citrine, internal (after residue 114), kept
B1 had an FRET efficiency of 50%.

B2: Citrine–GαsIEK (natural protein)
chain: MGCLGNSKTEDQRNEEKAQREANKKAAAQLQKDKQVYRATHRLLLLGAGESGKSTIVKQMRILHVNGFNGNSDGEKATKVQDIKNNLKEAIETIVAAMSNLVPPVELANPENQFRVDYILSVMNVPDFDFPPEFYEHAKALWEDEGVRACYERSNEYQLIDCAQYFLDKIDVIKQADYVPSDQDLLRCRVLTSGIFETKFQVDKVNFHMFDVGGQRDERRKWIQCFNDVTAIIFVVASSSYNMVIREDNQTNRLQEALNLFKSIWNNRWLRTISVILFLNKQDLLAEKVLAGKSKIEDYFPEFARYTTPEDATPEPGEDPRVTRAKYFIRDEFLRISTASGDGRHYCYPHFTCAVDTENIRRVFNDCRDIIQRMHLRQYELL
notes: Gαs subunit with the conserved region Ile26–Glu27–Lys28 (G.HN.43–45) changed to three alanines; cDNA from UMR cDNA Resource Center; the L1 loop Glu71-Ser82 exchanged for the fluorescent protein as in m1; Mutations made with the Quick Change method on the Gαs fusion; also called mutant GαsIEK protein; source: HEK 293, transiently transfected; in living cells (FLIM-FRET) and in cell lysate or …
Molecule B2 gave an FRET efficiency of 12.9%.
